Source: patent US20250340649A1 (RUTGERS THE STATE UNIVERSITY OF NEW JERSEY, published 2025)

Columns and labels:
HER3 = biological target: T1, HER3 (human, UniProt P21860 20-643, limits assumed); experiment: ELISA, periplasmic extract on coated antigen, anti-HA-HRP
T1 construct: also called Recombinant Human ErbB 3 protein, Abcam ab196072
Text: (§1) FIGS. 4A-4B. FIG. 4A) PBMCs were isolated using Ficoll-Paque method. Then, the RNAs were extracted, cDNA library was generated, genes amplified, and then cloned into pMECS-GG phagemids. The phagemids were used in phage display and the screened candidates were used to infect TG1 bacteria. Colonies were selected, grown, lysed, and the lysates removed. FIG. 4B) The lysates were then used in ELISA to screen for VHHs with the highest affinity to HER2 and with negligible binding to HER1, HER3, and HER4. Bovine serum albumin (BSA) and skim milk were used as controls.
(§2) The next day, each well was washed three times with washing buffer (DPBS+0.1% Tween 20) and then incubated with blocking buffer (2% skimmed milk) for 2 h at RT to block the free binding sites. Next, blocking buffer was replaced with 100 μL of periplasmic extract from above and incubated for 1 h at RT while shaking at 700 rpm. Each well was washed six times with washing buffer (DPBS+0.1% Tween 20) followed by addition of 100 μL HRP Anti-HA tag antibody (1:10000 dilution) and incubation for 1 h at RT while shaking at 700 rpm. Each well was washed again six times, followed by addition of 50 μL 1-Step™ Turbo TMB-ELISA substrate solution at incubation at RT for 15 min (without shaking and at dark). The reaction was stopped by adding 50 μL of stop solution ([…] sulfuric acid) and the plate was read at 450 nm using 630 nm as a reference (450/630 nm).

Bovine serum albumin = biological target: T2, Bovine serum albumin (bovine, UniProt P02769 25-607); experiment: as above
T2 construct: Control antigen; also called BSA
Text: as §1, §2

HER1 = biological target: T3, HER1 (human, UniProt P00533 25-645); experiment: as above
T3 construct: The text says only 'HER1'; also called Recombinant human EGFR protein (Fc Chimera), Abcam ab155726; Fc part of the bought chimera not given
Text: as §1, §2

[1] = biological target: T4, HER2 protein (coated on ELISA plate) (human, UniProt P04626 23-652, limits assumed); experiment: as above
T4 construct: also called HER2 antigen
Text: as §1, §2

[2] = biological target: T5, Biotinylated Human Fc gamma RIIIB/CD16b (NA2) Protein, His, Avitag (Acrobiosystems CDB-H82Ea) (human, UniProt O75015 17-200, biotinylated (Avitag)); experiment: BLI (Octet), biotinylated CD16b-NA2 on streptavidin sensor, BiKE 1.875-60 nM
T5 construct: NA2 allele; also called CD16-NA2
Method: (§3) An Octet® Streptavidin (SA) Biosensor was soaked for at least 10 min in DPBS supplemented with 0.1% Casein, biotinylated CD16a, CD16b-NA1, CD16b-NA2, and HER2 antigens were loaded onto the streptavidin (SA) biosensor until 1 nm shift was reached. Next, the sensor was dipped into the washing buffer (DPBS+0.05% Tween 20+0.1% Casein) for 2 min to reach the baseline. […] Then, in the dissociation step, sensors were dipped into the washing buffer for 5 min to acquire data (Table 5). The data were then analyzed using Octet Data Analysis HT 11.1 software. The sensorgrams were subtracted from the reference and fitted into 1:1 binding model for data analysis. Finally, the affinity and kinetics were analyzed using “Association and Dissociation”.

[3] = biological target: T6, Biotinylated Human Fc gamma RIIIB/CD16b (NA1) Protein, His, Avitag (Acrobiosystems CDB-H82E4) (human, UniProt O75015 17-200, biotinylated (Avitag)); experiment: BLI (Octet), biotinylated CD16b-NA1 on streptavidin sensor, BiKE 1.875-60 nM
T6 construct: NA1 allele; also called CD16b-NAI
Method: as §3

[4] = biological target: T7, HER2 on the surface of HER2+ cancer cells (BT474, SKOV-3) (human, UniProt P04626 23-1255); experiment: flow cytometry, SKOV-3 (HER2+) cells, tenfold dilutions 0.001-1000 nM
T7 construct: whole, on cells; also called human epidermal growth factor receptor 2

[5] = biological target: T8, CD16a on NK92 (CD16+) cells (human, UniProt P08637 17-254); experiment: flow cytometry, fixed haNK92 (CD16+) cells, tenfold dilutions, anti-histag-FITC
T8 construct: whole, on cells; also called NK92 cells (CD16a+); haNK92 cells (CD16a+)
Method: First, CD16a+NK92 was harvested and washed once using Dulbecco's phosphate-buffered saline (DPBS) supplemented with 2% FBS (2% DPBS-FBS). Next, all the cells were fixed using 3.7% paraformaldehyde for 20 min at RT, followed by washing twice. […] Following washing three times, the secondary antibody, anti-Histag antibody FITC labeled, was added. After washing, the samples were run on Cytoflex using FL1 channel.

[6] = biological target: T9, Biotinylated Human Her2/ErbB2 Protein, His, Avitag (AcroBiosystem HE2-H82E2) (human, UniProt P04626 23-652, biotinylated (Avitag)); experiment: ELISA on HER2, tenfold dilutions 0-1000 nM; the HER2 form is not stated for this ELISA, Table 17 lists only the biotinylated HER2
T9 construct: Bought protein; Loaded on streptavidin sensors for BLI; also called biotinylated HER2; HER2 antigen

[7] = biological target: T10, Biotinylated Human Fc gamma RIIIA/CD16a (F176) Protein, Avitag, His Tag (Acrobiosystems CDA-H82E8) (human, UniProt P08637 17-208, biotinylated (Avitag)); experiment: ELISA, biotinylated CD16a on streptavidin plate, tenfold dilutions 0-1000 nM, anti-cMyc-HRP
T10 construct: also called biotinylated CD16a; CD16a antigen
Method: For ELISA, 50 μL of biotinylated CD16a was added to the streptavidin-coated plate and incubated for 45 min at RT. […] Next, 100 μl anti-cMyc tag HRP conjugated secondary antibody (1:10,000 dilutions) was added. Finally, after washing, the substrate was added for color development, and the plate was read using OD of 450 nm.

[8] = biological target: T10, Biotinylated Human Fc gamma RIIIA/CD16a …; experiment: BLI (Octet), biotinylated CD16a on streptavidin sensor, BiKE 1.875-60 nM
Method: as §3

[9] = biological target: T7, HER2 on the surface of HER2+ cancer …; experiment: flow cytometry on BT-474 cells (HER2+), 100 nM binding sites
Method: (§4) OVASC-1 is an ascites-derived epithelial ovarian cancer cells obtained from a patient with advanced metastatic disease (11, 12). The expressed VHHs were then incubated with HER2⁺ (BT474, JIMT-1, and SKOV-3) and HER2⁻ (MDA-MB-231) cancer cell lines. Approximately 10⁶ cells were counted and washed using DPBS-1% FBS. […] After washing, FITC-conjugated anti-Human IgG or anti-Histag antibody were added and incubated on ice for 60 min. Cells were washed three times and then analyzed using Beckman-Coulter Gallios flow cytometer at Rutgers Flow cytometry core facility.
(§5) In the next step, the ability of the VHHs to recognize and bind to HER2 on the surface of HER2+ cancer cells was evaluated. […] MDA-MB-231 and OVASC-1 (HER2⁻) cancer cells were used as negative controls.

[10] = biological target: T7, HER2 on the surface of HER2+ cancer …; experiment: flow cytometry on SKOV-3 cells (HER2+), 100 nM binding sites
Method: as §4, §5

T5 sequence (O75015 17-200 N65S limits assumed): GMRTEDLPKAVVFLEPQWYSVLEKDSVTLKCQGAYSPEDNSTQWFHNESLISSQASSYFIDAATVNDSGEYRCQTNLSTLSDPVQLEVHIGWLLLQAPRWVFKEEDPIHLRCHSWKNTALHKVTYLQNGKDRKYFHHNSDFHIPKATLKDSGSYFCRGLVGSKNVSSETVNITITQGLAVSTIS
T2 sequence (P02769 25-607 limits assumed): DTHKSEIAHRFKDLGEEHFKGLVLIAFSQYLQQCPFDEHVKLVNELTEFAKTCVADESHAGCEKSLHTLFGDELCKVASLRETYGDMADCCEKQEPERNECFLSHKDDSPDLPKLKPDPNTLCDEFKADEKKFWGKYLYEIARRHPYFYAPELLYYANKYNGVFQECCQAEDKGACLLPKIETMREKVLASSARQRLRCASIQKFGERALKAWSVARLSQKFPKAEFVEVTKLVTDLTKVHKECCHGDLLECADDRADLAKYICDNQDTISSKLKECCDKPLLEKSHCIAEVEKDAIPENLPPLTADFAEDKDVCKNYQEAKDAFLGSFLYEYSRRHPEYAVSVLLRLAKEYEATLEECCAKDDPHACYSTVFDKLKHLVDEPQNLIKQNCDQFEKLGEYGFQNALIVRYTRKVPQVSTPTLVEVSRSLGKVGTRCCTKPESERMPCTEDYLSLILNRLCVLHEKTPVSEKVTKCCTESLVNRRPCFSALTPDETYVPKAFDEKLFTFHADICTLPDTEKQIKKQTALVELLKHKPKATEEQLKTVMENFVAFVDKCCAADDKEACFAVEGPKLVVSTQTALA
T10 sequence (P08637 17-208 limits assumed): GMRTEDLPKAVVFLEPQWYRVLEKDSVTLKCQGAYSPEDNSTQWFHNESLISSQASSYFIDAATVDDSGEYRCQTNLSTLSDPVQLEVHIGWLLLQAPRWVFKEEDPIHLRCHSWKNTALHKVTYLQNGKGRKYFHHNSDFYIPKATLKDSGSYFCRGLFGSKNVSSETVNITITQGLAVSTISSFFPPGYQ
T6 sequence (O75015 other isoform, or with tags, fused parts or gaps limits assumed): as the sequence (O75015 17-200 N65S limits assumed) above, with S20R, S49N, N66D, I90V counted along it
T8 sequence (P08637 17-254 F176V): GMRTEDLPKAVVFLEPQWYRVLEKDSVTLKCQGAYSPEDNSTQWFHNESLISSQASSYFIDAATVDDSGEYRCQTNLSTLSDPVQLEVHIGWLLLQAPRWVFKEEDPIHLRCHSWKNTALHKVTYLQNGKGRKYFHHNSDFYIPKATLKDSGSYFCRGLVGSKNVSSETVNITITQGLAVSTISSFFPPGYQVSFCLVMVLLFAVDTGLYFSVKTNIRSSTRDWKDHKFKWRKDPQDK

Binder | binding result (HER3) | binding result (Bovine serum albumin) | binding result (HER1) | FITC+ (%) [9] | FITC- (%) [9] | Mean (MFI) [9] | FITC+ (%) [10] | FITC- (%) [10] | Mean (MFI) [10] | further results
C9 (VHH, also called C9 anti-HER2 VHH) VHH: QVQLQESGGGLVQAGGSLRLSCAASGRTVSRYSMGWFRQAPGKEREFVAAIAWFGGWPYYADSVKGRFTISRDNAKNTVYLQMNSLKPEDTAVYYCAARQWARTWDYWGQGTQVTVSS | no binding (tested: extract, conc. not given) | no binding (tested: extract, conc. not given) | no binding (tested: extract, conc. not given) |  |  |  |  |  |  | binding result [1]: binds
E5C1 BiKE (BiKE: HER2/CD16a) (bispecific antibody, Monomer by LC-MS; also called BIKE: CD16a/HER2) QVQLQESGGGLVQAGGSLRLDCAASGRTLSSYVVGWFRQAPGKEREVVAAIGWSRTSTFYTDSVKGRFTISRDNTENTVYLQMNSLKPGDTAVYYCAADSSPRRWDRESDFGSWGQGTQVTVSSPSGQAGAAASESLFVSNHASQVQLQESGGGLVQAGGSLRLSCAASGRTFRLYRMGWFRQAPGKEREFVGSIKMIDGSTLYGDPVKGRFTISRDNTKFMAYLQMNSLKPEDTAVYYCASVSRVTGSYDSWGQGTQVTVSSWELQGSEQKLISEEDLHHHHHHHHHHHH |  |  |  |  |  |  |  |  |  | Kd [2]: 6.71 nM; koff [2]: 0.000946 s⁻¹; kon [2]: 140000 M⁻¹ s⁻¹; Kd [3]: 1730 nM; koff [3]: 0.0743 s⁻¹; kon [3]: 42900 M⁻¹ s⁻¹; EC50 (read off the curve) [4]: ~1 nM; EC50 (read off the curve) [5]: ~1 nM; EC50 (read off the curve) [6]: ~0.4 nM; EC50 (read off the curve) [7]: ~0.3 nM; Kd [8]: 2.7 nM; koff [8]: 0.00051 s⁻¹; kon [8]: 189000 M⁻¹ s⁻¹
F4 anti-HER2 VHH (VHH) VHH: QVQLQESGGGLVQAGGSLKLSCAASGRTLSAYVVGWFRQAPGKERESVAAIGWSSRSPYYPDSVKGRFTISEDNTKNTVYLQMNSLKPDDTAVYYCAADSYPRRWDRESDFGSWGQGTQVTVSS | no binding (tested: extract, conc. not given) | no binding (tested: extract, conc. not given) | no binding (tested: extract, conc. not given) | 98.5% | 1.45% | 99500 | 93.3% | 6.51% | 86400 | 
E9 anti-HER2 VHH (VHH) VHH: QVQLQESGGGSVQAGGSLKLSCAASGRTLSAYVVGWFRQAPGRERESVAAIGWSTHSVYYADSVKGRFTISRDNTENTVYLQMNSLKPDDTAVYYCAADSSPRRWDRESDFGSWGQGTQVTVSS | no binding (tested: extract, conc. not given) | no binding (tested: extract, conc. not given) | no binding (tested: extract, conc. not given) | 98.2% | 1.85% | 97900 | 93.1% | 6.76% | 88100 | 
H7 anti-HER2 VHH (VHH) VHH: QVQLQESGGGLVQAGGSLRLSCAASGHTLSTYVVAWFRQAPGKERESVAAIGWSTRSPYYADSVKGRFTISEDNTKNTVYLQMNSLKPDDTAVYYCAADSYPRRWDRESDFGSWGQGTQVTVSS | no binding (tested: extract, conc. not given) | no binding (tested: extract, conc. not given) | no binding (tested: extract, conc. not given) | 98.3% | 1.72% | 100000 | 94.8% | 5.02% | 99900 | 
D6 anti-HER2 VHH (VHH) VHH: QVQLQESGGGLVQAGGSLTLSCAASGRTFSTYVVGWFRQAPGKERESVAAIGWASNSPYYADSVKGRFTISRDNTKNTVYLQMKSLKPDDTAVYYCAADSYPRRWDRESDFGSWGQGTQVTVSS | no binding (tested: extract, conc. not given) | no binding (tested: extract, conc. not given) | no binding (tested: extract, conc. not given) | 98.1% | 1.86% | 96100 | 94.6% | 5.24% | 89400 | 
F2 anti-HER2 VHH (VHH) VHH: QVQLQESGGGLVQAGGSLKLSCAASGRTLSAYVVGWFRQAPGRERESVAAIGWSTHSVYYADSVKGRFTISRDNTENTVYLQMNSLKPDDTAVYYCAADSSPRRWDRESDFGSWGQGTQVTVSS | no binding (tested: extract, conc. not given) | no binding (tested: extract, conc. not given) | no binding (tested: extract, conc. not given) | 98.6% | 1.42% | 99500 | 93.1% | 6.68% | 100000 | 
